According to paper doi:10.1101/2021.03.17.435802 (bioRxiv, 2021):

B1: LY-CoV555 (antibody, V domains shown)
VH: QVQLVQSGAEVKKPGSSVKVSCKASGGTFSNYAISWVRQAPGQGLEWMGRIIPILGIANYAQKFQGRVTITADKSTSTAYMELSSLRSEDTAVYYCARGYYEARHYYYYYAMDVWGQGTAVTVSS
VL: not shown
B2: REGN10933 (antibody, V domains shown)
VH: QVQLVESGGGLVKPGGSLRLSCAASGFTFSDYYMSWIRQAPGKGLEWVSYITYSGSTIYYADSVKGRFTISRDNAKSSLYLQMNSLRAEDTAVYYCARDRGTTMVPFDYWGQGTLVTVSS
VL: DIQMTQSPSSLSASVGDRVTITCQASQDITNYLNWYQQKPGKAPKLLIYAASNLETGVPSRFSGSGSGTDFTFTISGLQPEDIATYYCQQYDNLPLTFGGGTKVEIK

Molecular target: SARS-CoV-2 S1 WT (in-house) (SARS-CoV-2, UniProt P0DTC2)
Experiment: SPR

| Binder | binding result |
| --- | --- |
| B1 | binds |
| B2 | binds |
